# According to patent US20060115428A1 (MorphoSys, published 2006):
# Positions count from the first letter of the chain named.
# B1: MOR02619 (Fab, V domains shown)
# VH: QVQLQESGPGLVKPGETLSLTCTVSGGSISSYYWSWIRQAPGKGLEWIGIGHWGSTQYNPSLKGRVTISVDTSKNQFSLKLSSVTAEDTAVYYCARFFDVWGQGTLVTVSS
# VL: DIVLTQPPSVSGAPGQRVTISCSGSSSNIGSNTVRWYQQLPGTAPKLLIYSNNKRPSGVPDRFSGSKSGTSASLAITGLQSEDEADYYCQSWDGASTGVFGGGTKLTVLG
# notes: HuCAL GOLD Fab, VH4/L1
# B2: MOR03066 (Fab, V domains shown)
# VH: B1 VH
# VL: B1 VL with Q90S, W92Y, G94T, A95Q, S96V, G98R
# notes: Fab, L-CDR3 derivative of MOR02619
# B3: MOR03071 (Fab, V domains shown)
# VH: B1 VH
# VL: B1 VL with Q90L, S91A, W92Y, D93I, G94Q, A95S, S96K, T97G, G98H
# notes: as for B2
# B4: MOR03075 (Fab, V domains shown)
# VH: B1 VH
# VL: B1 VL with G94P, A95R, T97F, G98T
# notes: as for B2
# B5: MOR02622 (Fab, V domains shown)
# VH: QVQLVESGGGLVQPGGSLRLSCAASGFTFSNYAMTWVRQAPGKGLEWVSGISYKSSSTYYADSVKGRFTISRDNSKNTLYLQMNSLRAEDTAVYYCARGLVTFDNWGQGTLVTVSS
# VL: DIALTQPASVSGSPGQSITISCTGTSSDGGTYNFVSWYQQHPGKAPKLMIYRVSNRPSGVSNRFSGSKSGNTASLTISGLQAEDEADYYCSSWTHSFTDYVFGGGTKLTVLG
# notes: HuCAL GOLD Fab, VH3/L2
# B6: MOR02722 (Fab, V domains shown)
# VH: QVQLVESGGGLVQPGGSLRLSCAASGFTFSSNAIHWVRQAPGKGLEWVSSISGSGSNTYYADSVKGRFTISRDNSKNTLYLQMNSLRAEDTAVYYCARFIASWGQGTLVTVSS
# VL: DIVMTQSPLSLPVTPGEPASISCRSSQSLVHSNGYTDLNWYLQKPGQSPQLLIYLGSYRASGVPDRFSGSGSGTDFTLKISRVEAEDVGVYYCQQYSNFPFTFGQGTKVEIKR
# notes: HuCAL GOLD Fab, VH3/K2
# B7: MOR02610 (Fab, V domains shown)
# VH: QVQLVQSGAEVKKPGASVKVSCKASGYTFTGFYINWVRQAPGQGLEWMGWINPYSGNTRYAQKFQGRVTMTRDTSISTAYMELSSLRSEDTAVYYCARSPVYYKYDYWGQGTLVTVSS
# VL: DIVLTQPPSVSGAPGQRVTISCSGSSGNIGINFVNWYQQLPGTAPKLLIYKNNKRPSGVPDRFSGSKSGTSASLAITGLQSEDEADYYCQSYDKTSSTYVFGGGTKLTVLG
# notes: HuCAL GOLD Fab, VH1B/L1
# B8: MOR02614 (Fab, V domains shown)
# VH: B6 VH with S30N, S31N, A33W, I34M, S50F, N57H, F99A, I100Y, A101D, S102V
# VL: DIVLTQPPSVSGAPGQRVTISCSGSSSNIGFNYVNWYQQLPGTAPKLLIYGNSKRPSGVPDRFSGSKSGTSASLAITGLQSEDEADYYCAMFSPEGVFGGGTKLTVLG
# notes: HuCAL GOLD Fab, VH3/L1
# B9: MOR02618 (Fab, V domains shown)
# VH: QVQLVESGGGLVQPGGSLRLSCAASGFTFNNYGMTWVRQAPGKGLEWVSSIYGYGSNTYYADSVKGRFTISRDNSKNTLYLQMNSLRAEDTAVYYCARNYWVFAYWGQGTLVTVSS
# VL: DIELTQPPSVSVAPGQTARISCSGDNIPGKSVHWYQQKPGQAPVLVIYGKMNRPSGIPERFSGSNSGNTATLTISGTQAEDEADYYCQSYDNFNDSVVFGGGTKLTVLG
# notes: HuCAL GOLD Fab, VH3/L3
# B10: MOR03243 (Fab, V domains shown)
# VH: QVQLQESGPGLVKPGETLSLTCTVSGGSISSYYWSWIRQAPGKGLEWIGEIHRGGYTQYNPSLKSRVTISVDTSKNQFSLKLSSVTAADTAVYYCARFFDVWGQGTLVTVSS
# VL: DIVLTQPPSVSGAPGQRVTISCSGSSSNIGSNTVRWYQQLPGTAPKLLIYSNNKRPSGVPDRFSGSKSGTSASLAITGLQSEDEADYYCQAWTRAHRYPVFGGGTKLTVLG
# notes: Fab, H-CDR2 derivative of MOR03055
# B11: MOR02611 (Fab, V domains shown)
# VH: QVQLVQSGAEVKKPGASVKVSCKASGYTFSGSYMHWVRQAPGQGLEWMGIINPASGKTLYAQKFQGRVTMTRDTSISTAYMELSSLRSEDTAVYYCARGLYYRFASWGQGTLVTVSS
# VL: DIALTQPASVSGSPGQSITISCTGTSSDIGGYHSVSWYQQHPGKAPKLMIYRSNRPSGVSNRFSGSKSGNTASLTISGLQAEDEADYYCAAATGGWVFGGGTNLTVLG
# notes: HuCAL GOLD Fab, VH1B/L2
# B12: MOR02613 (Fab, V domains shown)
# VH: QVQLVESGGGLVQPGGSLRLSCAASGFTFSNYTMTWVRQAPGKGLEWVSFIIGSGSNTSYADSVKGRFTISRDNSKNTLYLQMNSLRAEDTAVYYCARYVNGFDIWGQGTLVTVSS
# VL: DIALTQPASVSGSPGQSITISCTGTSSDVGVYYYVSWYQQHPGKAPKLMIYYDSKRPSGVSNRFSGSKSGNTASLTISGLQAEDEADYYCQTYAKKDYSLVFGGGTKLTVLG
# notes: HuCAL GOLD Fab, VH3/L2
# B13: MOR02616 (Fab, V domains shown)
# VH: QVQLVESGGGLVQPGGSLRLSCAASGFTFRNNAMHWVRQAPGKGLEWVSAISSSGSGTYYADSVKGRFTISRDNSKNTLYLQMNSLRAEDTAVYYCARVIVLFDYWGQGTLVTVSS
# VL: DIVLTQSPATLSLSPGERATLSCRASQNVRSNLAWYQQKPGQAPRLLIYGASNRATGVPARFSGSGSGTDFTLTISSLEPEDFAVYYCLQKYSIPFTFGQGTKVEIKR
# notes: HuCAL GOLD Fab, VH3/K3
# B14: MOR03055 (Fab, V domains shown)
# VH: B1 VH
# VL: B10 VL
# notes: as for B2
# B15: MOR03069 (Fab, V domains shown)
# VH: B1 VH
# VL: DIVLTQPPSVSGAPGQRVTISCSGSSSNIGSNTVRWYQQLPGTAPKLLIYSNNKRPSGVPDRFSGSKSGTSASLAITGLQSEDEADYYCWTGMSYHFVFGGGTKLTVLG
# notes: as for B2
# Experiments:
# [1] = target: T1, recombinant fibronectin domain 7-8-9 (without ED-B) (UniProt P02751-1 1173-1446, limits assumed); assay: specificity ELISA on immobilised recombinant domain 7-8-9
# T1 construct: domain: fibronectin domains 7-8-9 (without ED-B)
# [2] = target: T2, recombinant fibronectin domain 6 (UniProt P02751 1086-1172, limits assumed); assay: specificity ELISA on immobilised recombinant fibronectin domain 6
# T2 construct: domain: fibronectin domain 6; also called 6FN; 6-FN
# [3] = target: T3, recombinant fibronectin domain ED-B (His)6 (human, UniProt P02751 1266-1356); assay: SPR (BIAcore), ED-B immobilised on chip, Fab in flow
# T3 construct: domain: ED-B; Produced by standard procedures; immobilised on ELISA plates or on the BIAcore chip; also called recombinant ED-B; human ED-B
# Protocol: (§1) F1-Chips (Biacore, Sweden) were coated with about 200 RU of ED-B (30 μg/ml, 10 mmol of acetate buffer, pH 4.0) and reference flow cells with a corresponding amount of human serum albumin (20 μg/ml, 10 mmol of acetate buffer, pH 4.5) with use of standard EDC-NHS-amine-coupling chemistry. The antigen density was reduced to about 100 RU for the Fab characterization of the second maturation. The regeneration was carried out with 10 mmol of HCl. All kinetic measurements were carried out in PBS buffer (136 mmol of NaCl, 2.7 mmol of KCl, 10 mmol of Na₂HPO₄, 1.76 mmol of KH₂PO₄, pH 7.4) with a flow rate of 20 μl/minute with use of a Fab concentration range of 1.5-500 nmol. The injection period was 1 minute in each case. All sensograms were evaluated with use of BIA evaluation software 3.1.
# [4] = target: T3, recombinant fibronectin domain ED-B …; assay: as above; remark: listed apart in the source
# Protocol: as §1
# The properties of twelve selected binding molecules was determined by BIAcore analysis (see Table 1). […] At least two independent measurements with Fab molecules from different batches were performed for protein expression and protein purification. The binding rate (Kₒₙ) and the dissociating-off rate (Koff) of the Fab molecule are indicated in separate columns.
# [5] = target: T3, recombinant fibronectin domain ED-B …; assay: SPR (BIAcore); ratio to parent clone MOR02619
# Protocol: as §1
# [6] = target: T3, recombinant fibronectin domain ED-B …; assay: SPR (BIAcore), ED-B immobilised on chip (about 100 RU), Fab in flow
# Protocol: as §1
Binder,binding result [1],binding result [2],Kd [3],koff [3],kon [3],Kd [4],koff [4],kon [4],"x-Fold Improvement Relative to the Parent Clone, KD [5]","x-Fold Improvement Relative to the Parent Clone, Koff [5]","x-Fold Improvement Relative to the Parent Clone, Kon [5]",Kd [6],koff [6],kon [6]
B1,no binding,no binding,15.4 nM,0.012 s⁻¹,780000 M⁻¹ s⁻¹,15.4 nM,0.012 s⁻¹,780000 M⁻¹ s⁻¹,,,,,,
B2,,,4.2 nM,0.0047 s⁻¹,1.1e+06 M⁻¹ s⁻¹,,,,3.8 fold,2.8 fold,1.4 fold,,,
B3,,,3.1 nM,0.0057 s⁻¹,1.9e+06 M⁻¹ s⁻¹,,,,5.1 fold,2.3 fold,2.3 fold,,,
B4,,,2.4 nM,0.0026 s⁻¹,1.1e+06 M⁻¹ s⁻¹,,,,6.8 fold,5 fold,1.4 fold,,,
B5,no binding,no binding,,,,21.3 nM,0.0051 s⁻¹,240000 M⁻¹ s⁻¹,,,,,,
B6,no binding,no binding,,,,94 nM,0.014 s⁻¹,150000 M⁻¹ s⁻¹,,,,,,
B7,no binding,no binding,,,,75 nM,0.091 s⁻¹,1.3e+06 M⁻¹ s⁻¹,,,,,,
B8,no binding,no binding,,,,160 nM,0.042 s⁻¹,280000 M⁻¹ s⁻¹,,,,,,
B9,no binding,no binding,,,,477 nM,0.2 s⁻¹,430000 M⁻¹ s⁻¹,,,,,,
B10,,,,,,,,,,,,0.7 nM,0.0018 s⁻¹,2.9e+06 M⁻¹ s⁻¹
B11,,,,,,332 nM,0.051 s⁻¹,150000 M⁻¹ s⁻¹,,,,,,
B12,,,,,,164 nM,0.13 s⁻¹,780000 M⁻¹ s⁻¹,,,,,,
B13,,,,,,59 nM,0.028 s⁻¹,540000 M⁻¹ s⁻¹,,,,,,
B14,,,3 nM,0.0051 s⁻¹,1.8e+06 M⁻¹ s⁻¹,,,,5.4 fold,2.6 fold,2.2 fold,,,
B15,,,3.3 nM,0.0041 s⁻¹,1.2e+06 M⁻¹ s⁻¹,,,,4.8 fold,3.2 fold,1.5 fold,,,
